The source of these data is PMC10393190 (Genes & Development, 2022).

Common to all, as to experiment: EMSA
(In EMSA bound probe runs differently from free probe, usually more slowly.)

Data set [1] addresses T1, Mer2 (Saccharomyces cerevisiae, UniProt P21651 1-314).
T1 sequence: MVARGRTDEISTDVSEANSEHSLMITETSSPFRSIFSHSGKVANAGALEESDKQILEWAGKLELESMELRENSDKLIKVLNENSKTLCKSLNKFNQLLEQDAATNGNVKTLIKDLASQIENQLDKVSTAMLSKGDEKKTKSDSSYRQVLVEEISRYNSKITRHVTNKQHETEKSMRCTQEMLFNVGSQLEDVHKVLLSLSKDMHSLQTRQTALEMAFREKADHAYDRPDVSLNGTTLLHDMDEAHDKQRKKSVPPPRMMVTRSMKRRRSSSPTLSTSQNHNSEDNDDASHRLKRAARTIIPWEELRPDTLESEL

The target in another data set is T2, IHO1 coiled-coil domain (Mus musculus, UniProt Q6PDM4 109-267).
T2 sequence: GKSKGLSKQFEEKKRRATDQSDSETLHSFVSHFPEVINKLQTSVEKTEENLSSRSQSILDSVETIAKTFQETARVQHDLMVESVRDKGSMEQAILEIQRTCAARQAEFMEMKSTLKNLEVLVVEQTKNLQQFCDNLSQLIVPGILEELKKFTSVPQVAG

Another data set addresses T3, Rec15 coiled-coil domain (Schizosaccharomyces pombe, UniProt Q09094 1-160).
T3 sequence: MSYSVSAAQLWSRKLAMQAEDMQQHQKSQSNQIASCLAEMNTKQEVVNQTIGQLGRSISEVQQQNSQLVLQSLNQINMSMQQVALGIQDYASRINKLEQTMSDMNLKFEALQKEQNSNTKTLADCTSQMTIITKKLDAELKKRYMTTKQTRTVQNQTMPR

The target of data set [2] is T4, IHO1-KKRR coiled-coil domain (Mus musculus, UniProt Q6PDM4 109-267, K121A;K122A;R123A;R124A).
T4 sequence: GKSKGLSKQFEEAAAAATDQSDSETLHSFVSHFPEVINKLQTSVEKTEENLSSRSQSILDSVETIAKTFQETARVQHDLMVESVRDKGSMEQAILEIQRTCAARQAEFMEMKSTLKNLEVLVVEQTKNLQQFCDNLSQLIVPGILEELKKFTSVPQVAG

The target in data set [3] is T5, Rec15-5KR coiled-coil domain (Schizosaccharomyces pombe, UniProt Q09094 1-160, K134A;K135A;K141A;K142A;R143A).
T5 sequence: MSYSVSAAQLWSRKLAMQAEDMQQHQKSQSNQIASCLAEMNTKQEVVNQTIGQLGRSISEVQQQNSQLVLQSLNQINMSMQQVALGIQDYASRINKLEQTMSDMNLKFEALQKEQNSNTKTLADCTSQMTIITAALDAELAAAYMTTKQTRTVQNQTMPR

Data set [4] deals with T6, Rec114-6KR C-terminal domain;Mei4 N-terminal domain (Saccharomyces cerevisiae;Saccharomyces …, UniProt P32841;P29467 375-428;1-43, R395A;K396A;K399A;R400A;K403A;K407A|).
T6 sequence 1: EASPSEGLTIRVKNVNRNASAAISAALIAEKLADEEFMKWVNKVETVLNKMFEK
T6 sequence 2: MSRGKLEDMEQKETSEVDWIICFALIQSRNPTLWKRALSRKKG

For a further data set, the target named is T7, Mer2-KKTK mutant (Saccharomyces cerevisiae, UniProt P21651 1-314, K137A;K138A;K140A).
T7 sequence: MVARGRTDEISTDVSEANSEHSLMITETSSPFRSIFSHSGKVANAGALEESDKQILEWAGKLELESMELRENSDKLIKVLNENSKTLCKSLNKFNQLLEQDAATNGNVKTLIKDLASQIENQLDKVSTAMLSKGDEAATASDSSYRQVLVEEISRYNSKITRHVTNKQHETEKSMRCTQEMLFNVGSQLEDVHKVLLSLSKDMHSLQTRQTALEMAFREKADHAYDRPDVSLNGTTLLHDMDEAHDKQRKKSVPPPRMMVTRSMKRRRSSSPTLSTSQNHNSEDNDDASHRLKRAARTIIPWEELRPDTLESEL

In data set [5] the target is T1, Mer2. The source holds these as a separate data set.
The target in data set [6] is T1, Mer2. This is another data set of the same source.

Where two headings read alike, the source gives them in different places.

B1: Y (cb095/cb098/cb101) (structured_DNA)
DNA 1: CTAGTATAGAGCCGGCGCGCCATGTCTAGATAGCGTTAGGTCTGCCGAATAGTACTACTCGGATCCCGAGCGAACCACGC
DNA 2: CACGGGTAACCGCGGGTACCGTGAAGATCTACTCGCGTCTCCTAACGCTATCTAGACATGGCGCGCCGGCTCTATACTAG
DNA 3: GCGTGGTTCGCTCGGGATCCGAGTAGTACTATTCGGCAGAAGACGCGAGTAGATCTTCACGGTACCCGCGGTTACCCGTG
In the case of B1, the “apparent K (half saturation)” value with Mer2 [1] came out at 10.6 ± 1.2 nM.

B2: HJ40 fluorescent (dd077/cb096/cb097/cb098) (structured_DNA)
DNA 1: CTAGTATAGAGCCGGCGCGCCATGTCTAGATAGCGTTAGGTCTGCCGAATAGTACTACTCGGATCCCGAGCGAACCACGC
DNA 2: GCGTGGTTCGCTCGGGATCCGAGTAGTACTATTCGGCAGAGGATTCGAATAGGCCTAATCGAATTCCGCCATCGATGCAC
DNA 3: GTGCATCGATGGCGGAATTCGATTAGGCCTATTCGAATCCAGACGCGAGTAGATCTTCACGGTACCCGCGGTTACCCGTG
DNA 4: CACGGGTAACCGCGGGTACCGTGAAGATCTACTCGCGTCTCCTAACGCTATCTAGACATGGCGCGCCGGCTCTATACTAG
Turning to B2, the binding result with IHO1 coiled-coil domain was “binds”; in the data set with Rec15 coiled-coil domain, “binds”; in data set [2], “no binding”; in data set [3], “no binding”; in data set [4], “no binding”; with Mer2-KKTK mutant, “binds”.

B3: dsDNA 80 bp (cb095/cb100) (dsDNA)
DNA 1: CTAGTATAGAGCCGGCGCGCCATGTCTAGATAGCGTTAGGTCTGCCGAATAGTACTACTCGGATCCCGAGCGAACCACGC
DNA 2: GCGTGGTTCGCTCGGGATCCGAGTAGTACTATTCGGCAGACCTAACGCTATCTAGACATGGCGCGCCGGCTCTATACTAG
Take B3: the “apparent K (half saturation)” value with Mer2 [5] is 36.8 ± 13.3 nM.

B4: HJ20 (cb922/cb923/cb924/cb925) (structured_DNA)
DNA 1: CAACGTGGGCAAAGATGTCCTAGCAATGTAATCGTCTATG
DNA 2: ATTCTACCAGTGCCAGTGATGGACATCTTTGCCCACGTTG
DNA 3: ATCCTCTAGACAGCTCCATGATCACTGGCACTGGTAGAAT
DNA 4: CATAGACGATTACATTGCTACATGGAGCTGTCTAGAGGAT
Turning to B4, in the data set with Mer2 [6], the “apparent K (half saturation)” value came to 23.9 ± 2.9 nM.
